Experimental data: patent US20140363428A1 (Chugai, published 2014)
Substitutions are numbered along the chain they refer to.

B1: F1650 (antibody)
chain 1: QVQLQESGPGLVKPSETLSLTCAVSGHSISHDHAWSWVRQPPGEGLEWIGFISYSGITNYNPSLQGRVTISRDNSKNTLYLQMNSLRAEDTAVYYCARSLARTTAMDYWGEGTLVTVSSASTKGPSVFPLAPSSKSTSGGTAALGCLVKDYFPEPVTVSWNSGALTSGVHTFPAVLQSSGLYSLSSVVTVPSSSLGTQTYICNVNHKPSNTKVDKKVEPKSCDKTHTCPPCPAPELRGGPKVFLFPPKPKDTLYITREPEVTCVVVDVSHEDPEVKFNWYVDGVEVHNAKTKPREEQYNSTYRVVSVLTVLHQDWLNGKEYKCKVSNKALPAPIEKTISKAKGQPREPQVYTLPPSRDELTKNQVSLTCLVKGFYPSDIAVEWESNGQPENNYKTTPPVLDSDGSFFLYSKLTVDKSRWQQGNVFSCSVMHEALRYHVTKKELSLSP
chain 2: DIQMTQSPSSLSASVGDSVTITCQASTDISSHLNWYQQKPGKAPELLIYYGSHLLSGVPSRFSGSGSGTDFTFTISSLEAEDAATYYCGQGNRLPYTFGQGTKVEIERTVAAPSVFIFPPSDEQLKSGTASVVCLLNNFYPREAKVQWKVDNALQSGNSQESVTEQDSKDSTYSLSSTLTLSKADYEKHKVYACEVTHQGLSSPVTKSFNRGEC
B2: F1644 (antibody)
chain 1: B1 chain 1 with R435K
chain 2: B1 chain 2
B3: F1642 (antibody)
chain 1: B1 chain 1 with R435A, K440R, E442D
chain 2: B1 chain 2
B4: F1648 (antibody)
chain 1: B1 chain 1 with R435P, K440R, E442D
chain 2: B1 chain 2
B5: F1572 (antibody)
chain 1: B1 chain 1 with R435K, K440R
chain 2: B1 chain 2
B6: F1643 (antibody)
chain 1: B1 chain 1 with R435A, E442D
chain 2: B1 chain 2
B7: F1649 (antibody)
chain 1: B1 chain 1 with R435P, E442D
chain 2: B1 chain 2
B8: F1578 (antibody)
chain 1: B1 chain 1 with K440R
chain 2: B1 chain 2
B9: F1579 (antibody)
chain 1: B1 chain 1 with R435S, K440R
chain 2: B1 chain 2
B10: F1641 (antibody)
chain 1: B1 chain 1 with R435A
chain 2: B1 chain 2
B11: F1647 (antibody)
chain 1: B1 chain 1 with R435P
chain 2: B1 chain 2
B12: F1576 (antibody)
chain 1: B1 chain 1 with R435P, K440R
chain 2: B1 chain 2
B13: F1645 (antibody)
chain 1: B1 chain 1 with R435K, K440R, E442D
chain 2: B1 chain 2
B14: F1646 (antibody)
chain 1: B1 chain 1 with R435K, E442D
chain 2: B1 chain 2
B15: IgG1-F1353 (antibody)
heavy: B1 chain 1 with T256S, E258T, R435D, V438T, K440R
light: not shown
B16: IgG1-F1357 (antibody)
heavy: B1 chain 1 with E258T, R435H, V438T, K440R
light: not shown
B17: IgG1-F1362 (antibody)
heavy: B1 chain 1 with E258T, R435D, V438F
light: not shown
B18: IgG1-F1415 (antibody)
heavy: B1 chain 1 with Q313A, R435D
light: not shown
B19: IgG1-F1421 (antibody)
heavy: QVQLQESGPGLVKPSETLSLTCAVSGHSISHDHAWSWVRQPPGEGLEWIGFISYSGITNYNPSLQGRVTISRDNSKNTLYLQMNSLRAEDTAVYYCARSLARTTAMDYWGEGTLVTVSSASTKGPSVFPLAPSSKSTSGGTAALGCLVKDYFPEPVTVSWNSGALTSGVHTFPAVLQSSGLYSLSSVVTVPSSSLGTQTYICNVNHKPSNTKVDKKVEPKSCDKTHTCPPCPAPELLGGPSVFLFPPKPKDTLMISRTPEVTCVVVDVSHEDPEVKFNWYVDGVEVHNAKTKPREEQYNSTYRVVSVLTPLHQDWLNGKEYKCKVSNKALPAPIEKTISKAKGQPREPQVYTLPPSRDELTKNQVSLTCLVKGFYPSDIAVEWESNGQPENNYKTTPPVLDSDGSFFLYSKLTVDKSRWQQGNVFSCSVLHEALHWHYTQKSLSLSP
light: not shown
B20: IgG1-F1360 (antibody)
heavy: B1 chain 1 with E258T, R435D, V438T
light: not shown
B21: IgG1-F1375 (antibody)
heavy: B1 chain 1 with E258T, R435H, K440Q, E442S
light: not shown
B22: IgG1-F1428 (antibody)
heavy: B1 chain 1 with T256S, S306E, V310P, R435D, K440R
light: not shown
B23: IgG1-F1418 (antibody)
heavy: B1 chain 1 with R435D, Y436W, K440R
light: not shown
B24: IgG1-F1414 (antibody)
heavy: B1 chain 1 with T309Q, R435D
light: not shown
B25: IgG1-F1423 (antibody)
heavy: B1 chain 1 with T256S, V304D, V310P, R435D, K440R
light: not shown
B26: IgG1-F1361 (antibody)
heavy: B1 chain 1 with E258T, R435D, V438T, K440R
light: not shown
B27: IgG1-F1367 (antibody)
heavy: B1 chain 1 with R435H, V438T, K440R
light: not shown
B28: IgG1-F1417 (antibody)
heavy: B1 chain 1 with R435D, Y436W
light: not shown
B29: IgG1-F1422 (antibody)
heavy: B1 chain 1 with T256S, V310P, R435D, K440R
light: not shown
B30: IgG1-F1365 (antibody)
heavy: B1 chain 1 with T256S, R435D, V438T
light: not shown
B31: IgG1-F1368 (antibody)
heavy: B1 chain 1 with R435H, V438F
light: not shown
B32: IgG1-F1364 (antibody)
heavy: B1 chain 1 with T256S, R435H, V438F
light: not shown
B33: IgG1-F1354 (antibody)
heavy: B1 chain 1 with T256S, E258T, R435D, V438F
light: not shown
B34: IgG1-F1372 (antibody)
heavy: B1 chain 1 with R435D, V438T, K440R
light: not shown
B35: IgG1-F1359 (antibody)
heavy: B1 chain 1 with E258T, R435H, V438F, K440R
light: not shown
B36: IgG1-F1356 (antibody)
heavy: B19 heavy with G238R, M254Y, P310V, L330R, L430M, W436Y, Y438V
light: not shown
B37: IgG1-F1358 (antibody)
heavy: B1 chain 1 with E258T, R435H, V438F
light: not shown
B38: IgG1-F1411 (antibody)
heavy: B19 heavy with I334V, W436S
light: not shown
B39: IgG1-F1355 (antibody)
heavy: B1 chain 1 with T256S, E258T, R435D, V438F, K440R
light: not shown
B40: IgG1-F1373 (antibody)
heavy: B1 chain 1 with R435D, V438F
light: not shown
B41: IgG1-F1424 (antibody)
heavy: B1 chain 1 with T256S, V304E, V310P, R435D, K440R
light: not shown
B42: IgG1-F1376 (antibody)
heavy: B1 chain 1 with R435H, K440Q, E442S
light: not shown
B43: IgG1-F1366 (antibody)
heavy: B1 chain 1 with T256S, R435D, V438F
light: not shown
B44: IgG1-F1425 (antibody)
heavy: B1 chain 1 with T256S, V305D, V310P, R435D, K440R
light: not shown
B45: IgG1-F1377 (antibody)
heavy: B1 chain 1 with T256S, R435H, K440Q, E442S
light: not shown
B46: IgG1-F1426 (antibody)
heavy: B1 chain 1 with T256S, V305E, V310P, R435D, K440R
light: not shown

Each binder was assayed against T1, soluble human FcRn (human, UniProt P55899 24-297; P61769 21-119) (assay: SPR (Biacore), pH 7.0).
T1 construct: Heterodimer of alpha chain and beta2-microglobulin; also called hFcRn

| Kd | Binder |
| --- | --- |
| 40 nM | B1 |
| 35 nM | B2 |
| 41 nM | B3 |
| 38 nM | B4 |
| 41 nM | B5 |
| 39 nM | B6 |
| 37 nM | B7 |
| 46 nM | B8 |
| 54 nM | B9 |
| 41 nM | B10 |
| 38 nM | B11 |
| 43 nM | B12 |
| 36 nM | B13 |
| 35 nM | B14 |

Each binder was assayed against T1, soluble human FcRn (assay: SPR (Biacore), pH 7.0, 25 C;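 note: antibodies captured on a protein L-coated CM4 chip with human FcRn injected as analyte, KD obtained from ka and kd fitted to sensorgrams, in sodium phosphate buffer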).
Protocol: An appropriate amount of protein L (ACTIGEN) was immobilized onto Sensor chip CM4 (GE Healthcare) by the amino coupling method, and the chip was allowed to capture an antibody of interest. Then, diluted FcRn solutions and running buffer (as a reference solution) were injected to allow human FcRn to interact with the antibody captured on the sensor chip. The running buffer used comprised 50 mmol/l sodium phosphate, 150 mmol/l NaCl, and 0.05% (w/v) Tween20 (pH 7.0). FcRn was diluted using each buffer. The chip was regenerated using 10 mmol/l glycine-HCl (pH 1.5). Assays were carried out exclusively at 25 degrees C. The association rate constant ka (1/Ms) and dissociation rate constant kd (1/s), both of which are kinetic parameters, were calculated based on the sensorgrams obtained in the assays, and KD (M) of each antibody for human FcRn was determined from these values. Each parameter was calculated using Biacore T100 Evaluation Software (GE Healthcare).

| Kd | Binder |
| --- | --- |
| 430 nM | B15 |
| 280 nM | B16 |
| 140 nM | B17 |
| 59 nM | B18 |
| 32 nM | B19 |
| 310 nM | B20 |
| 100 nM | B21 |
| 15 nM | B22 |
| 75 nM | B23 |
| 56 nM | B24 |
| 16 nM | B25 |
| 350 nM | B26 |
| 180 nM | B27 |
| 59 nM | B28 |
| 19 nM | B29 |
| 310 nM | B30 |

| Kd | Binder |
| --- | --- |
| 55 nM | B31 |
| 75 nM | B32 |
| 230 nM | B33 |
| 230 nM | B34 |
| 130 nM | B35 |
| 160 nM | B36 |
| 91 nM | B37 |
| 170 nM | B38 |
| 250 nM | B39 |
| 87 nM | B40 |
| 16 nM | B41 |
| 91 nM | B42 |
| 120 nM | B43 |
| 19 nM | B44 |
| 83 nM | B45 |
| 18 nM | B46 |
